Test results reported in US10479836B2, “Method for treating pulmonary hypertension with interleukin-5 receptor antibody” (University of Toyama, priority 2015, dated 2019).
Entries after “also recorded” stand apart in the source; their conditions may differ.

B1: H7-2: core fucose-deficient H7 chimeric antibody, human IgG1, with Cys at VL position 87 replaced with Ser (antibody, V domains shown)
VH: EVQLQQSGAELGKPGTSVKLSCKVSGYNIKNTYIHWVNQRPGKGLEWIGRIDPANGNPIYAEKFKNKATLTADTSSNTAYMQLSQLKSDDTAIYFCAMHRGHSMGPGPYVMDAWGQGASVTVSS
VL: DIQMTQSPASLSASLGETVTIECRTSEDIYNGLAWYQQKPGKSPQLLIYNANSLHTGVPSRFSGSGSGTQYSLKINSLQSEDVASYSCQQYSNYPFTFGSGTKLEIK
B2: KM8808: core fucose-deficient anti-dinitrophenol (DNP) rat/human chimeric antibody, isotype control (antibody, V domains shown)
VH: EVQLQESGPGLVKPSQSLSLTCSVTGYSITSGYWNWIRKFPGNKMEWIGYISYSGSTYYNPSLKSRISITRDTSKNQFFLQLNSVTTEDTATYYCARWGVRHYFDYWGQGVMATVSS
VL: DVVMTQTPVSLPVSLGGQASISCRSSQSLANSYGNTYLSWYLQKPGQSPQLLIYRVSNTFSGVPDRFSGSGSGTDFTLKISRVEPEDLGDYYCLQGTHQPYTFGAGTKLELK
B3: KM6161: N-linked sugar chain-deficient anti-DNP rat/human chimeric antibody containing N297A substitution, isotype control (antibody, V domains shown)
VH: B2 VH
VL: B2 VL
B4: H7-4: N-linked sugar chain-deficient H7 chimeric antibody, human IgG1 (N297A), with Cys at VL position 87 replaced with Ser (antibody, V domains shown)
VH: B1 VH
VL: B1 VL

tested on: mouse IL-5Rα-expressing cell Y16; test: Antigen binding activity of chimeric antibodies on Y16 cells by FCM; type: cell-based; conditions: FIG. 12
Description: The chimeric antibodies prepared in Example 8 were evaluated for their antigen binding activity using a mouse-derived cell line Y16 expressing IL-5R. The Y16 cells were washed with SM (staining medium containing 2% FCS, 0.05% NaN3, and 1 mM EDTA in PBS). Then, Mouse BD Fc Block (manufactured by Becton, Dickinson and Company) was added thereto at a concentration of 5 μg/mL, and the mixture was left standing at 4° C. for 30 min. The cells were inoculated at a cell number of 1×10^5 cells/well to a 96-well U-bottom plate, and each chimeric antibody adjusted to a final concentration of 10000, 2500, 625, 156, 39, 10, 2.4, or 0.6 ng/mL was added thereto, followed by reaction at 4° C. for 60 min. The rat/human chimeric control antibodies used were rtDNP-1 hIgG1 (DF) antibody (KM8808) and rtDNP-1 hIgG1 (N297A) antibody (KM6161). The nucleotide sequences and amino acid sequences of the variable regions of each isotype control antibody are shown in SEQ ID NOs: 29 to 34. After washing of the cells with SM, Goat F(ab′)2 Anti-Human IgG PE (γ chain specific) (manufactured by Southern Biotech) diluted 500-fold with SM was added thereto, followed by reaction at 4° C. for 60 min. After washing of the cells with SM, the cells were resuspended in 50 μL of SM. Fluorescence intensity was measured by FCM (flow cytometer FACS Canto II (manufactured by Becton, Dickinson and Company)). The data was analyzed using FlowJo 7.65 (manufactured by Tomy Digital Biology Co., Ltd.) to calculate a Geomean value at each concentration.

Molecule	binding ability to Y16 cells, H7-1 and H7-2 compared
B1	slight rise in binding ability

tested on: eosinophils (CD45-positive, Gr1-negative, Siglec-F-positive cells); test: IL-33-induced increase of lung eosinophils, FCM of lung cell suspension; type: in vivo, mouse; conditions: IL-5+/+ mice, 100 μg antibody i.p. five times; FCM day 21; FIG. 16
Description: (§1) In an experimental system similar to that of Example 3, in order to confirm the inhibitory effects of anti-IL-5R antibodies and anti-IL-5 neutralizing antibodies on vascular wall thickening, 100 μg of the H7 (CS) hIgG1 (DF) (H7-2) antibody, the H7 (CS) hIgG1 (N297A) (H7-4) antibody, an anti-IL-5 antibody (ligand-neutralizing antibody, clone name: TRFK5), the anti-DNP antibody KM8808, the anti-DNP antibody KM6161, or rat IgG (clone name: HRPN) was intraperitoneally administered to each IL-5^+/+ mouse a total of five times (3 consecutive days (three times) from two days before the first rIL-33 administration day (day 0), once on the second rIL-33 administration day (day 7), and once on the third rIL-33 administration day (day 14)) (FIG. 15). Then, on day 21, lung tissues were resected and evaluated by FCM and immunofluorescent staining.
In the FCM, 1×10^6 cells in the lung cell suspension were stained with a PE-Cy7-conjugated anti-CD45 antibody (30-F11), an APC-conjugated anti-Gr1 antibody (RB6-8C5), and a PE-conjugated anti-Siglec-F antibody (E50-2440) (all manufactured by BD Biosciences). CD45-positive, Gr1-negative, and Siglec-F-positive cells were regarded as eosinophils, and the influence of antibody administration was observed.

Molecule	inhibition of IL-33-induced increase in the number of eosinophils
B2	not inhibited
B3	not inhibited
B1	inhibited almost completely; also recorded: superior in eosinophil growth-inhibiting function
B4	at a degree poorer than that of H7-2

same assay, conditions: IL-5+/+ mice, PBS instead of IL-33; 100 μg antibody i.p. five times; lung cells day 21, FCM

Molecule	abundance ratio of eosinophils, in absence of IL-33 (PBS) [%]
B2	1.19
B3	0.92
B1	0.24
B4	0.17

same assay, conditions: IL-5+/+ mice, rIL-33 days 0, 7, 14; 100 μg antibody i.p. five times; lung cells day 21, FCM

Molecule	abundance ratio of eosinophils, in presence of IL-33 [%]
B2	48.3
B3	52.4
B1	1.58
B4	29.1

tested on: Y16 cells; test: IL-5 signal inhibition: rIL-5-dependent Y16 growth inhibition (WST-1); type: cell-based, mouse; conditions: rIL-5 5 units/mL, 24 hours
Description: Whether or not the various recombinant chimeric antibodies prepared in Example 8 would have the function of inhibiting IL-5 signals was studied by using Y16 growth inhibition as an index. 2×10^3 Y16 cells were cultured for 24 hours in the presence or absence of rIL-5 (5 units/mL) after addition of the Cys substitution-containing core fucose-unlinked H7 recombinant chimeric antibody H7 (CS) hIgG1 (DF) (H7-2), the N-linked sugar chain-deficient H7 recombinant chimeric antibody H7 (CS) hIgG1 (N297A) (H7-4), and the anti-DNP antibodies KM8808 and KM6161 at a concentration of 0.01, 0.1, 1, or 10 μg/mL. 24 hours later, these antibodies were evaluated for their ability to inhibit growth using Premix WST-1 Cell Proliferation Assay System (manufactured by Takara Bio Inc.). The culture time after addition of the reagent of the cell growth assay kit was set to 1 hour.

Molecule	Y16 growth inhibiting ability, H7-2 and H7-4 compared
B1	equivalent inhibiting ability
B4	equivalent inhibiting ability

same assay, conditions: rIL-5 5 units/mL, 24 hours, antibody 0.01-10 μg/mL; FIG. 14

Molecule	inhibition of Y16 cell growth (IL-5 signal-inhibiting function)
B2	not observed
B3	not observed
B1	inhibited the growth of the Y16 cells in an antibody concentration-dependent manner
B4	inhibited the growth of the Y16 cells in an antibody concentration-dependent manner

tested on: Y16 cells; test: ADCC activity against Y16 cells with human PBMC effector cells (LDH release); type: cell-based, mouse; conditions: 4 hrs, 0.0001-1000 ng/mL (control antibodies 1000 ng/mL), FIG. 13
Description: The H7 recombinant chimeric antibodies prepared in Example 8 were evaluated for their ADCC activity against Y16 cells using frozen human peripheral blood mononuclear cells (PBMCs) (manufactured by AllCells) as effector cells. The frozen human PBMCs were shake-cultured (37° C., 5% CO2, overnight) in RPMI1640 medium containing 5% FBS. The Y16 cells (target cells) and the human PBMCs (effector cells) were washed with ADCC assay medium (RPIM1640 containing 5% dialyzed FBS) and adjusted to cell densities of 2×10^5 cells/mL and 3×10^6 cells/mL, respectively. The cells were washed twice with a medium and then suspended into cell densities of 4×10^5 cells/mL. Each chimeric antibody adjusted to a final concentration of 0.0001, 0.001, 0.01, 0.1, 1, 10, 100, or 1000 ng/mL, the target cells (2×10^4 cells/well), and the effector cells (5×10^5 cells/well) were added in this order at 50 μL/well to a 96-well U-bottom plate. The control antibodies used were the rtDNP-1 hIgG1 (DF) antibody (KM8808) and the rtDNP-1 hIgG1 (N297A) antibody (KM6161) of Example 10 adjusted to a final concentration of 1000 ng/mL. The plate was centrifuged (500 rpm, 5 min) and then left standing in an incubator (37° C., 5% CO2, 4 hrs). The plate was centrifuged (1500 rpm, 5 min) to recover a supernatant at 50 μL/well into a 96-well Flat-bottom plate (manufactured by Sumitomo Bakelite Co., Ltd.). Lactate dehydrogenase (LDH) activity in the supernatant was detected using CytoTox 96 Non-Radioactive Cytotoxicity Assay (manufactured by Promega Corp.). Absorbance at 490 nm was measured using a plate reader SPECTRA MAX 340 PC384 (manufactured by Molecular Devices, LLC). The ADCC activity (%) was calculated according to the following equation using background-corrected measurement values. Cytotoxicity=[[Absorbance of the sample]−[Absorbance derived from spontaneous release from the target cells and the effector cells]]/[[Absorbance derived from total release from the target cells]−[Absorbance derived from spontaneous release from the target cells]]

Molecule	ADCC activity against Y16 cells
B2	none
B3	none
B1	exhibited antibody concentration-dependent ADCC activity
B4	none

tested on: IL-33-induced vascular wall thickening (SMA-positive cells); test: IL-33-induced vascular wall thickening, immunofluorescent staining of lung tissue; type: in vivo, mouse; conditions: IL-5+/+ mice, 100 μg antibody i.p. five times; lung tissue day 21
Description: as §1
In the immunofluorescent staining, the tissues were sliced into 30 μm, and slides were prepared and then stained with an Alexa 488-conjugated anti-SMA antibody (1A4) (manufactured by Abcam plc) and an Alexa 647-conjugated anti-Siglec-F antibody (E50-2440). The nuclei of the cells were stained with Hoechst 33342 (manufactured by Life Technologies Corp.). Here, the degree of the growth of SMA-positive cells (primary media-constituting cells) was observed.

Molecule	inhibition of IL-33-induced vascular wall thickening (immunofluorescent staining)
B2	not observed
B3	not observed
B1	inhibited most strongly; also recorded: vascular wall thickening inhibitory effect superior to H7-4 or the IL-5 ligand-neutralizing antibody
B4	at a degree poorer than that of H7-2
